Test results: patent US20170089928A1 (SYSMEX, published 2017)

Experiments:
[1] = biological target: T1, Heat-denatured BSA (bovine serum albumin autoclaved for 15 minutes) (bovine, UniProt P02769 25-607); assay: turbidity (OD550), heat-denatured BSA mixed with rising concentration of α-endorphin
T1 construct: also called heat-denatured BSA solution; reagent for detection
Description: In the preparation, the sample was mixed so as to obtain a final concentration of the respective peptides in the mixed solutions of 0 to 150 μM.

[2] = biological target: T1, Heat-denatured BSA (bovine serum …); assay: turbidity (OD550), heat-denatured BSA mixed with rising concentration of C3f
[3] = biological target: T1, Heat-denatured BSA (bovine serum …); assay: turbidity (OD550), heat-denatured BSA mixed with rising concentration of the Fibrinogen α peptide
[4] = biological target: T1, Heat-denatured BSA (bovine serum …); assay: turbidity (OD550), heat-denatured BSA mixed with rising concentration of the Factor XIII peptide
[5] = biological target: T1, Heat-denatured BSA (bovine serum …); assay: turbidity (OD550), Hill plot analysis
Description: (§1) The Kd value and Hill coefficient were calculated for the respective samples.

[6] = biological target: T1, Heat-denatured BSA (bovine serum …); assay: turbidity (OD550), heat-denatured BSA mixed with rising concentration of the kininogen fragment
Description: In the preparation, the sample was mixed so as to obtain a final concentration of the respective peptides in the mixed solutions of 0 to 80 μM.
as §1

[7] = biological target: T2, Heat-denatured ovoalbumin (OA) (UniProt P01012 2-386); assay: turbidity (OD550), Hill plot analysis
T2 construct: 1.0 w/v % OA, pH adjusted to 5 to 7 with sodium hydroxide, autoclaved at 115 C for 15 min; also called Heat-denatured OA; denatured OA
T2 sequence (looked up): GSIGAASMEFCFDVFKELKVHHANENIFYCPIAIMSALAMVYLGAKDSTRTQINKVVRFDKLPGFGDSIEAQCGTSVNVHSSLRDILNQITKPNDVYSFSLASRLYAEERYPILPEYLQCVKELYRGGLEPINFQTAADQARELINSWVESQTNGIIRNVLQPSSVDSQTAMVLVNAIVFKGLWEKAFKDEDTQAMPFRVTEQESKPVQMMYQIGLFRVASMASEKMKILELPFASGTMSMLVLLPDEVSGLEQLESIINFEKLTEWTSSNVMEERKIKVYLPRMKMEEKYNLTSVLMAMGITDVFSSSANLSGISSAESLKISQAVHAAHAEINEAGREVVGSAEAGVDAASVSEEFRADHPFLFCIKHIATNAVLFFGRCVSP
Description: (§2) In the preparation, the sample was mixed so as to obtain a final concentration of the partial ACTH peptide in the mixed solution of 0 to 80 μM.
(§3) The thus-prepared mixed solutions were measured for absorbance at the wavelength of 550 nm (OD550) with a spectrophotometer UV-2500PC (Shimadzu Corporation).

[8] = biological target: T1, Heat-denatured BSA (bovine serum …); assay: turbidity (OD550) against peptide concentration, Hill plot analysis
Description: (§4) In this preparation, the sample was mixed so as to obtain a final concentration of the partial ACTH peptide in the mixed solution of 0 to 150 μM.
(§5) The thus-prepared mixed solutions were measured for absorbance at the wavelength of 550 nm (OD550) in a spectrophotometer UV-2500PC (Shimadzu Corporation).

Non-denatured BSA [9] = biological target: T3, Non-denatured BSA (bovine, UniProt P02769 25-607); assay: as above
T3 construct: BSA solution that was not heated; also called non-denatured BSA solution; BSA heat-denatured for 0 min
Description: as §4, §5

Non-denatured BSA [10] = biological target: T3, Non-denatured BSA; assay: turbidity (OD550), Hill plot analysis; heat denaturation period 0 min
Description: (§6) The Kd value and Hill coefficient of BSA at respective heat denaturation periods were calculated.

[11] = biological target: T4, BSA heat-denatured for 5 minutes (bovine, UniProt P02769 25-607); assay: turbidity (OD550), Hill plot analysis; heat denaturation period 5 min
T4 construct: Autoclaved at 110 C for 5 min; also called heat denaturation period 5 min
Description: as §6

[12] = biological target: T1, Heat-denatured BSA (bovine serum …); assay: turbidity (OD550), Hill plot analysis; control solution without serum
Description: (§7) In the preparation, the serum-based sample was mixed so as to adjust a final concentration of the partial ACTH peptide of to 0 to 80 μM and adjust a final concentration of serum of to an equivalent to 100-fold dilution in the mixed solution. For a control, a mixed solution was also prepared without serum (hereinafter referred to as “control solution”).
as §3

[13] = biological target: T1, Heat-denatured BSA (bovine serum …); assay: turbidity (OD550), Hill plot analysis; heat denaturation period 15 min
Description: as §6

[14] = biological target: T5, BSA heat-denatured for 60 minutes (bovine, UniProt P02769 25-607); assay: turbidity (OD550), Hill plot analysis; heat denaturation period 60 min
T5 construct: Autoclaved at 110 C for 60 min; also called heat denaturation period 60 min
Description: as §6

[15] = biological target: T1, Heat-denatured BSA (bovine serum …); assay: turbidity (OD550), Hill plot analysis; table row for nucleic acid 'No'
Description: (§8) A comparative mixed solution was prepared by adding to the mixed solution a salmon sperm DNA (trade name: Sonicated Salmon Sperm DNA, BioDynamics Laboratory Inc.) as nucleic acid (final concentration of nucleic acid: 10 μM).
(§9) The Kd value and Hill coefficient were calculated for the mixed solutions.

[16] = biological target: T6, BSA heat-denatured for 120 minutes (bovine, UniProt P02769 25-607); assay: turbidity (OD550), Hill plot analysis; heat denaturation period 120 min
T6 construct: Autoclaved at 110 C for 120 min; also called heat denaturation period 120 min
Description: as §6

[17] = biological target: T1, Heat-denatured BSA (bovine serum …); assay: turbidity (OD550), Hill fit with competitive inhibition term; serum at 100-fold dilution
Description: as §7, §3

[18] = biological target: T4, BSA heat-denatured for 5 minutes; assay: turbidity (OD550), BSA heat-denatured for 5 min mixed with rising concentration of the partial ACTH peptide
Description: as §6

[19] = biological target: T1, Heat-denatured BSA (bovine serum …); assay: turbidity (OD550), BSA heat-denatured for 15 min mixed with rising concentration of the partial ACTH peptide
Description: as §6

[20] = biological target: T5, BSA heat-denatured for 60 minutes; assay: turbidity (OD550), BSA heat-denatured for 60 min mixed with rising concentration of the partial ACTH peptide
Description: as §6

[21] = biological target: T6, BSA heat-denatured for 120 minutes; assay: turbidity (OD550), BSA heat-denatured for 120 min mixed with rising concentration of the partial ACTH peptide
Description: as §6

[22] = biological target: T7, Heat-denatured human serum albumin (HSA) (human, UniProt P02768 25-609); assay: turbidity (OD550), heat-denatured HSA (0.2 w/v %) mixed with rising concentration of the partial ACTH peptide
T7 construct: 1.0 w/v % HSA in ultrapure water, autoclaved at 115 C for 15 min; also called Heat-denatured HSA; denatured HSA
Description: as §2, §3

[23] = biological target: T1, Heat-denatured BSA (bovine serum …); assay: turbidity (OD550), Hill plot analysis; table row for nucleic acid 'Yes' (salmon sperm DNA, 10 µM); with nucleic acid (Yes)
Description: as §8, §9

[24] = biological target: T1, Heat-denatured BSA (bovine serum …); assay: turbidity (OD550), heat-denatured BSA mixed with rising peptide concentration; fitted curve of FIG. 1 superimposed
[25] = biological target: T1, Heat-denatured BSA (bovine serum …); assay: turbidity (OD550) of mixtures of heat-denatured BSA (0.2 w/v %) with rising concentration of the partial ACTH peptide
Description: as §4, §5

[26] = biological target: T1, Heat-denatured BSA (bovine serum …); assay: turbidity (OD550), heat-denatured BSA mixed with rising concentration of the partial ACTH peptide, without nucleic acid
Description: as §8, §9

[27] = biological target: T1, Heat-denatured BSA (bovine serum …); assay: turbidity (OD550), heat-denatured BSA mixed with rising concentration of the partial ACTH peptide, with salmon sperm DNA (10 µM)
Description: as §8, §9

T1 sequence (P02769 25-607 limits assumed): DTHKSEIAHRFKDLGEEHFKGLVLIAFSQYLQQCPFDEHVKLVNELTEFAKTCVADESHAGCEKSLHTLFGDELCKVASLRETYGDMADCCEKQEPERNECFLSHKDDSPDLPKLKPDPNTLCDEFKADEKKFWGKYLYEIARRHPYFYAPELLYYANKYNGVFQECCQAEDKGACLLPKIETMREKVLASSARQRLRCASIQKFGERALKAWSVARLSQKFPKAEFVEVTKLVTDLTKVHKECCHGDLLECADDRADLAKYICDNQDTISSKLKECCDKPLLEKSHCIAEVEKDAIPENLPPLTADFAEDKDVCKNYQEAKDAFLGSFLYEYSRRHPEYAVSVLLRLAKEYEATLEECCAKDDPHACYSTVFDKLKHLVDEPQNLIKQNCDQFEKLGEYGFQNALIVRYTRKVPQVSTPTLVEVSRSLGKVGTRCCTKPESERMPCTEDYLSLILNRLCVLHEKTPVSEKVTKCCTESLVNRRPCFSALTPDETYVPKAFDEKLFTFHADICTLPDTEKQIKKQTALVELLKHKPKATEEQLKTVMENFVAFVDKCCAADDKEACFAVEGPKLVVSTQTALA
T3 sequence (P02769 25-607 limits assumed): as above
T6 sequence (P02769 25-607 limits assumed): as above
T5 sequence (P02769 25-607 limits assumed): as above
T4 sequence (P02769 25-607 limits assumed): as above

B1: α-endorphin (peptide)
peptide: YGGFMTSEKSQTPLVT
notes: Neutral comparative peptide, Peptide Institute, Inc; also called neutral peptide, α-endorphin
[1]
  binding result: no binding (tested: 150 µM)

## HWESASLL (Acidic peptide from Biologica Co) [C3f (acidic peptide)]
[2]
  binding result: no binding (tested: 80 µM)

## DEAGSEADHEGTHSTKRGHAKSRPV [Fibrinogen α (neutral peptide)]
[3]
  binding result: no binding (tested: 80 µM)

## AVPPNNSNAAEDDLPTVELQGVVPR [Factor XIII (acidic peptide)]
[4]
  binding result: no binding (tested: 80 µM)

B2: fragment of kininogen (positions 439 to 457) (peptide)
peptide: HNLGHGHKHERDQGHGHQR
notes: also called Kininogen (439-457); kininogen fragment
[5]
  Kd: 45 µM
[6]
  EC50 (read off the curve): ~40 µM

B3: fragment of ITIH4 (positions 611 to 642) (peptide)
peptide: GESRNRNVHSGSTFFKYYLQGAKIPKPEASFS
notes: also called ITIH4 (611-642); ITIH4 fragment
[5]
  Kd: 70 µM

## SYSMEHFRWGKPVGKKRRPVKVYP (also called basic peptide of interest) [partial ACTH peptide consisting of the amino acids of positions 1 to 24 of ACTH]
[7]
  Kd: 67 µM
[8]
  Kd: 30 µM
Non-denatured BSA [9]
  Kd: 290 µM
Non-denatured BSA [10]
  Kd: 290 µM
[11]
  Kd: 33 µM
[12]
  Kd: 25 µM
[13]
  Kd: 30 µM
[14]
  Kd: 28 µM
[15]
  Kd: 40 µM
[16]
  Kd: 33 µM
[17]
  Kd: 29 µM
[18]
  EC50 (read off the curve): ~30 µM
[19]
  EC50 (read off the curve): ~30 µM
[20]
  EC50 (read off the curve): ~30 µM
[21]
  EC50 (read off the curve): ~30 µM
[22]
  EC50 (read off the curve): 40 to 50 µM
[23]
  Kd: 30 µM
[24]
  EC50 (read off the curve): 20 to 30 µM
[25]
  EC50 (read off the curve): ~30 µM
[26]
  EC50 (read off the curve): ~30 µM
[27]
  EC50 (read off the curve): ~40 µM
